3 proteins from patent publication US20020157122 can be followed below.

The target of data set [1] is humanized APP bearing the Swedish variant (a murine APP in which the Aβ1-42 region corresponds to the human Aβ1-42), P12023.
In data set [2] the target is hAPP717 (variant of humanized APP), P12023.
Data set [3] addresses T1, humanized wild type APP (hAPPwt), P12023.
T1 chain: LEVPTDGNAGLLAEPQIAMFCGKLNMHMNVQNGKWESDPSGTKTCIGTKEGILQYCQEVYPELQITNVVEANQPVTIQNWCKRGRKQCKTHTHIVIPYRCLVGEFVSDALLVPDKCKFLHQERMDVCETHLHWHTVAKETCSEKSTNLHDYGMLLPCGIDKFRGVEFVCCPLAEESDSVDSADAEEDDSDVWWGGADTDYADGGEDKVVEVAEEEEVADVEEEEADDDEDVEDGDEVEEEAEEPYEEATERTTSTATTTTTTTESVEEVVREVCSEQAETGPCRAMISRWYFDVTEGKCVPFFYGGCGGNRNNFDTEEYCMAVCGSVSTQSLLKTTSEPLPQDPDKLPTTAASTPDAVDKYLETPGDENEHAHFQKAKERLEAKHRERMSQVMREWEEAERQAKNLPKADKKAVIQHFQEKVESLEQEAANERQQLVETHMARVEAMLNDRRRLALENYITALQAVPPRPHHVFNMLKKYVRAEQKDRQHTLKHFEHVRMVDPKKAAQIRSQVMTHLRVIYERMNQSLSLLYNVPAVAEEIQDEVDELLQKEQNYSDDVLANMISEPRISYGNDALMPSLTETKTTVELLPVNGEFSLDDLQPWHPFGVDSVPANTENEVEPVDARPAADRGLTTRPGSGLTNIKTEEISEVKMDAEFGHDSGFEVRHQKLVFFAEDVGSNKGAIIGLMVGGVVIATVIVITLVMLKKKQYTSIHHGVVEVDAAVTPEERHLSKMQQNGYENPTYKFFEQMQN

In data set [4] the target is T2, mouse APP (endogenous β-amyloid precursor protein), P12023.
T2 chain: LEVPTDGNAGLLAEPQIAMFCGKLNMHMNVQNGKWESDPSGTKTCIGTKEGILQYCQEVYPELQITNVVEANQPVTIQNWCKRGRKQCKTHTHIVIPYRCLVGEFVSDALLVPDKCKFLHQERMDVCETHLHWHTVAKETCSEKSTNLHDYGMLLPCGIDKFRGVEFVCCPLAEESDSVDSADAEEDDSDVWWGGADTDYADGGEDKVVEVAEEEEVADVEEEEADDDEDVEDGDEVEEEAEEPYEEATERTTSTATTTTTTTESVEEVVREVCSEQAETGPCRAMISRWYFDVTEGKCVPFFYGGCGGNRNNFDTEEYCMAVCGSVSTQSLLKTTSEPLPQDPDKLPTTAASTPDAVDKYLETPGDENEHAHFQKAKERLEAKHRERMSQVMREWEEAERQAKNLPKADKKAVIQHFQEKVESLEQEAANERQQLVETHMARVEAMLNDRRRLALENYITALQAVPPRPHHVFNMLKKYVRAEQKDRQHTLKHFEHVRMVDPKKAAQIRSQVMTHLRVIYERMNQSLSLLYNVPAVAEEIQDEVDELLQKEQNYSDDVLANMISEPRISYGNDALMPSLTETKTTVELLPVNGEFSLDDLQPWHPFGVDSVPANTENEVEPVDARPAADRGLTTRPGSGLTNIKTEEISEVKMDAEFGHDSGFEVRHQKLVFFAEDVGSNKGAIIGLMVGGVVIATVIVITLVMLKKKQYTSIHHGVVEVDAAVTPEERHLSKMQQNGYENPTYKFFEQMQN

B1: BACE2 (endogenous, in cultured mouse astrocytes and neurons) (protein)
chain: ALEPVRATANFLAMVDNLQGDSGRGYYLEMLIGTPPQKVQILVDTGSSNFAVAGAPHSYIDTYFDSESSSTYHSKGFDVTVKYTQGSWTGFVGEDLVTIPKGFNSSFLVNIATIFESENFFLPGIKWNGILGLAYAALAKPSSSLETFFDSLVAQAKIPDIFSMQMCGAGLPVAGSGTNGGSLVLGGIEPSLYKGDIWYTPIKEEWYYQIEILKLEIGGQNLNLDCREYNADKAIVDSGTTLLRLPQKVFDAVVEAVARTSLIPEFSDGFWTGAQLACWTNSETPWAYFPKISIYLRDENASRSFRITILPQLYIQPMMGAGFNYECYRFGISSSTNALVIGATVMEGFYVVFDRAQRRVGFAVSPCAEIEGTTVSEISGPFSTEDIASNCVPAQALNEPILWIVSYALMSVCGAILLVLILLLLLPLHCRHAPRDPEVVNDESSLVRHRWK
With B1, the “relative amount of Aβ 1-19 and Aβ 1-20 normalized to Aβ1-40 (ProteinChip array coated with 6E10)” value in data set [1] is “BACE2 mediated cleavages (at +19 and +20 of Aβ) were much higher in cultured astrocytes as compared to neurons”.

B2: human BACE1 (full-length, expressed from recombinant adenovirus) (protein)
chain: ETDEEPEEPGRRGSFVEMVDNLRGKSGQGYYVEMTVGSPPQTLNILVDTGSSNFAVGAAPHPFLHRYYQRQLSSTYRDLRKGVYVPYTQGKWEGELGTDLVSIPHGPNVTVRANIAAITESDKFFINGSNWEGILGLAYAEIARPDDSLEPFFDSLVKQTHVPNLFSLQLCGAGFPLNQSEVLASVGGSMIIGGIDHSLYTGSLWYTPIRREWYYEVIIVRVEINGQDLKMDCKEYNYDKSIVDSGTTNLRLPKKVFEAAVKSIKAASSTEKFPDGFWLGEQLVCWQAGTTPWNIFPVISLYLMGEVTNQSFRITILPQQYLRPVEDVATSQDDCYKFAISQSSTGTVMGAVIMEGFYVVFDRARKRIGFAVSACHVHDEFRTAAVEGPFVTLDMEDCGYNIPQTDESTLMTIAYVMAAICALFMLPLCLMVCQWRCLRCLRQQHDDFADDISLLK
For B2, in data set [1], the “+11 derived β-CTF in neurons (immunoprecipitation with CT15)” value (shortened to “+11 derived β-CTF in neurons”) is “when neurons co-expressing human BACE1 and hAPPwt or hAPPswe or hAPP717 there is secreted a peptide corresponding to the +11 derived β-CTF (+11-CTF) in addition to the +1 derived β-CTF”; the “secretion of Aβ peptides into culture medium of BACE1 deficient astrocytes” value was “BACE1 deficient astrocytes co-infected with adenoviruses expressing both APPswe and BACE1 restored the ability to secrete Aβ peptides into culture medium”; the “secretion of human Aβ11-40 (IP-MS of conditioned media with 4G8)” value is “The human Aβ11-40 peptides are also secreted by primary neurons co expressing human BACE1 and hAPPswe or hAPP717”. In addition, in data set [2], the “+11 derived β-CTF in neurons” value is “when neurons co-expressing human BACE1 and hAPPwt or hAPPswe or hAPP717 there is secreted a peptide corresponding to the +11 derived β-CTF (+11-CTF) in addition to the +1 derived β-CTF”; the “secretion of human Aβ11-40 (IP-MS of conditioned media with 4G8)” value is “The human Aβ11-40 peptides are also secreted by primary neurons co expressing human BACE1 and hAPPswe or hAPP717”. Moreover, in data set [3], the “+11 derived β-CTF in neurons” value was “when neurons co-expressing human BACE1 and hAPPwt or hAPPswe or hAPP717 there is secreted a peptide corresponding to the +11 derived β-CTF (+11-CTF) in addition to the +1 derived β-CTF”; the “secretion of human Aβ11-40 (IP-MS of conditioned media with 4G8)” value was “now revealed the secretion of human Aβ11-40 peptide in addition to the murine Aβ11-40 peptide from murine neurons co-expressing human BACE1 and hAPPwt”.

B3: mouse BACE1 (endogenous, beta-site APP-cleaving enzyme 1) (protein)
chain: ETDEESEEPGRRGSFVEMVDNLRGKSGQGYYVEMTVGSPPQTLNILVDTGSSNFAVGAAPHPFLHRYYQRQLSSTYRDLRKGVYVPYTQGKWEGELGTDLVSIPHGPNVTVRANIAAITESDKFFINGSNWEGILGLAYAEIARPDDSLEPFFDSLVKQTHIPNIFSLQLCGAGFPLNQTEALASVGGSMIIGGIDHSLYTGSLWYTPIRREWYYEVIIVRVEINGQDLKMDCKEYNYDKSIVDSGTTNLRLPKKVFEAAVKSIKAASSTEKFPDGFWLGEQLVCWQAGTTPWNIFPVISLYLMGEVTNQSFRITILPQQYLRPVEDVATSQDDCYKFAVSQSSTGTVMGAVIMEGFYVVFDRARKRIGFAVSACHVHDEFRTAAVEGPFVTADMEDCGYNIPQTDESTLMTIAYVMAAICALFMLPLCLMVCQWRCLRCLRHQHDDFADDISLLK
Take B3: in data set [1], the “Aβ1-40 and Aβ1-42 in conditioned media of astrocytes (Aβ ELISA)” value was “Aβ1-40 and Aβ1-42 were easily detected from BACE1+/+ and BACE1+/- astrocyte cultures by Aβ ELISA assay, but were not detectable from BACE1-/- cultures”; the “Aβ1-40 and Aβ1-42 in conditioned media of neurons (quantitative sandwich ELISA)” value was “showed high levels of Aβ1-40 and Aβ1-42 while undetectable levels of Aβ1-40 and Aβ1-42 were observed from media of BACE1-/- cultures expressing APPswe”. For the same protein, in data set [4], the “secretion of Aβ peptides from primary cortical neurons (IP-MS of conditioned media with 4G8)” value is on record as “secretion of these Aβ species is abolished from BACE1-/- neurons except for the Aβ 17-40 (p3) fragment”. In addition, the “secretion of Aβ peptides (IP-MS of conditioned media with 4G8)” value in data set [3] was “the human and murine Aβ1-40 and Aβ1-42 were secreted, however, the human Aβ11-40 peptide was not secreted into culture media from murine primary neurons infected with adenovirus expressing hAPPwt”.
